Patent US10961298 (GOVERNMENT OF THE UNITED STATES AS REPRESENTED BY THE …, dated 2021)

Experiments:
[1] = target: T1, Hcp peptide KDLDATSPKLWEACS (Acinetobacter baumannii); assay: peptide ELISA, peptide on plate, anti-mouse HRP, OD450
T1 peptide: KDLDATSPKLWEACS

[2] = target: T2, Hcp peptide EVQIDFYRANGDKRI (Acinetobacter baumannii); assay: as above
T2 peptide: EVQIDFYRANGDKRI

[3] = target: T3, Hcp peptide PKLWEACSAGYTFDE (Acinetobacter baumannii); assay: as above
T3 peptide: PKLWEACSAGYTFDE

[4] = target: T4, Hcp peptide IRQPKSATSSSVGGH (Acinetobacter baumannii); assay: as above
T4 peptide: IRQPKSATSSSVGGH

[5] = target: T5, Hcp peptide QQDINGTAKGAVTKK (Acinetobacter baumannii); assay: as above
T5 peptide: QQDINGTAKGAVTKK

[6] = target: T6, Hcp peptide LKHVLVSSVTPTVNE (Acinetobacter baumannii); assay: as above
T6 peptide: LKHVLVSSVTPTVNE

[7] = target: T7, Hcp peptide HTAERVEHSDMVFVK (Acinetobacter baumannii); assay: as above
T7 peptide: HTAERVEHSDMVFVK

[8] = target: T8, Hcp peptide #1 MKDIYVEFRGKYKVD (Acinetobacter baumannii); assay: as above
T8 construct: also called amino terminus peptide; N-terminus peptide
T8 peptide: MKDIYVEFRGKYKVD

[9] = target: T9, Hcp peptide KWSLSNNTASYAA (Acinetobacter baumannii); assay: as above
T9 peptide: KWSLSNNTASYAA

[10] = target: T10, Hcp peptide IKYLQIKLKHVLVSS (Acinetobacter baumannii); assay: as above
T10 peptide: IKYLQIKLKHVLVSS

[11] = target: T11, Hcp peptide SAGYTFDEVQIDFYR (Acinetobacter baumannii); assay: as above
T11 peptide: SAGYTFDEVQIDFYR

[12] = target: T12, Hcp peptide AFGLKYAAVEWTYNQ (Acinetobacter baumannii); assay: as above
T12 peptide: AFGLKYAAVEWTYNQ

[13] = target: T13, Hcp peptide HSDMVFVKDLDATSP (Acinetobacter baumannii); assay: as above
T13 peptide: HSDMVFVKDLDATSP

[14] = target: T14, Hcp peptide TSSSVGGHTAERVEH (Acinetobacter baumannii); assay: as above
T14 peptide: TSSSVGGHTAERVEH

[15] = target: T15, Hcp peptide RANGDKRIKYLQIKL (Acinetobacter baumannii); assay: as above
T15 peptide: RANGDKRIKYLQIKL

[16] = target: T16, Hcp peptide EHKGWLEVNSWSHN (Acinetobacter baumannii); assay: as above
T16 peptide: EHKGWLEVNSWSHN

[17] = target: T17, Hcp peptide AVEWTYNQQDINGTA (Acinetobacter baumannii); assay: as above
T17 peptide: AVEWTYNQQDINGTA

[18] = target: T18, Hcp peptide VNSWSHNIRQPKSAT (Acinetobacter baumannii); assay: as above
T18 peptide: VNSWSHNIRQPKSAT

[19] = target: T19, Hcp peptide SVTPTVNEEGVPTEA (Acinetobacter baumannii); assay: as above
T19 peptide: SVTPTVNEEGVPTEA

[20] = target: T20, Hcp peptide EEGVPTEAFGLKYAA (Acinetobacter baumannii); assay: as above
T20 peptide: EEGVPTEAFGLKYAA

[21] = target: T21, Hcp peptide FRGKYKVDGESRDSE (Acinetobacter baumannii); assay: as above
T21 peptide: FRGKYKVDGESRDSE

[22] = target: T22, Hcp peptide AKGAVTKKWSLSNNT (Acinetobacter baumannii); assay: as above
T22 peptide: AKGAVTKKWSLSNNT

[23] = target: T23, Hcp peptide DGESRDSEHKGWLEV (Acinetobacter baumannii); assay: as above
T23 peptide: DGESRDSEHKGWLEV

[24] = target: T24, Hcp (hemolysin co-regulated protein, T6SS needle protein) of Acinetobacter baumannii AB5075, recombinant, … (Acinetobacter baumannii (strain AB5075)); assay: screening of hybridoma clones for binding to Hcp antigen
T24 construct: Cloned NcoI/XhoI into pET22b, overexpressed in E. coli and purified on a nickel column; also called full-length Hcp protein; purified Hcp protein
T24 chain: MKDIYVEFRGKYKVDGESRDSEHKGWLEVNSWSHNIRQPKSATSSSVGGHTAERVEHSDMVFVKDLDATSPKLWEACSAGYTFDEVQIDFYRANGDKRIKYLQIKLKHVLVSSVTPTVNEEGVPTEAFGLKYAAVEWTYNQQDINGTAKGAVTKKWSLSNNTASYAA

B1: 13F7 anti-Hcp monoclonal antibody (antibody, V domains shown)
VH: EVQLQESGGGLVQPGGSMKLSCVVSGFIFSSYWMSWVRQSPEKGLEWLAEIRLKSDNYVTLYAESVKGKFTISRDDSKSRLFLQMNTLRAEDTGIYYCTRSYHALDYWGQGTSVTVSS
VL: DIVMAQSPSSLNVSAGDKVTMSCKSSQSLLNSGNQRNYLAWYQQKPGQPPKLLIYGASTRESGVPDRFTGSGSGTDFTLTISSVQAEDLAVYYCQNDHIYPFTFGSGTKLEIK
notes: Mouse monoclonal antibody from a hybridoma; also called αHcp; 13F7 αHcp antibody
[1]
  binding result: no binding
[2]
  binding result: no binding
[3]
  binding result: no binding
[4]
  binding result: no binding
[5]
  binding result: no binding
[6]
  binding result: no binding
[7]
  binding result: no binding
[8]
  binding result: binds
[9]
  binding result: no binding
[10]
  binding result: no binding
[11]
  binding result: no binding
[12]
  binding result: no binding
[13]
  binding result: no binding
[14]
  binding result: no binding
[15]
  binding result: no binding
[16]
  binding result: no binding
[17]
  binding result: no binding
[18]
  binding result: no binding
[19]
  binding result: no binding
[20]
  binding result: no binding
[21]
  binding result: no binding
[22]
  binding result: no binding
[23]
  binding result: no binding
[24]
  binding result: binds
